Sequences and labels used below:
B1: mAb 222 (antibody, V domains shown)
VH: EVQLVESGGGLIQPGGSLRLSCAASGLTVSSNYMSWVRQAPGKGLEWVSVIYSGGSTFYADSVKGRFTISRDNSKNTLYLQMNSLGAEDTAVYYCARGEGSPGNWFDPWGQGTLVTVSS
VL: DVVMTQSPGTLSLSPGERATLSCRASQSVPSSYLAWYQQKPGQAPRLLIYGASTRATGIPDRFSGSGSGTDFTLTISRLEPEDFAVYYCQHYDTSPRFGGGTKVDIK
notes: copies: 2 + 2
B2: mAb 88 (antibody, V domains shown)
VH: QLQLQESGPGLVKPSQTLSLTCTVSGGSISSGSYNWTWIRQPAGKGLEWIGRIYNSGSTNYNPSLKSRVTISVDTSKNQLSLKVRSVTAADTAVYYCARHCSGGTCYPKYYYGMDVWGQGTTVTVSS
VL: QSALTQPPSVSEAPRQRVTISCSGSSSNIGNNAVNWYQQFPGKAPKLLIYYDDLLPSGVSDRFSGSKSGTSASLAISGVQSEDEADYYCAAWDDSLNVVVFGGGTKLTVL
notes: copies: 2 + 2
B3: REGN10987 (antibody, V domains shown)
VH: QVQLVESGGGVVQPGRSLRLSCAASGFTFSNYAMYWVRQAPGKGLEWVAVISYDGSNKYYADSVKGRFTISRDNSKNTLYLQMNSLRTEDTAVYYCASGSDYGDYLLVYWGQGTLVTVSS
VL: QSALTQPASVSGSPGQSITISCTGTSSDVGGYNYVSWYQQHPGKAPKLMIYDVSKRPSGVSNRFSGSKSGNTASLTISGLQSEDEADYYCNSLTSISTWVFGGGTKLTVL
notes: source: provided by AstraZeneca; copies: 2 + 2
B4: mAb 316 (antibody, V domains shown)
VH: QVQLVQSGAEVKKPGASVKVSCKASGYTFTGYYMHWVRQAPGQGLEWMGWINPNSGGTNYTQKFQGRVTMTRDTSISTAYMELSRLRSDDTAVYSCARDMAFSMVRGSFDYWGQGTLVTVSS
VL: QAVLTQPPSASGSPGQSVTISCTGTSSDVGGYNYVSWYQQHPGKAPKLMIYEVSKRPSGVPDRFSGSKSGNTASLTVSGLQAEDEADYYCSSYAGSNHWVFGGGTKLTVL
notes: copies: 2 + 2
B5: mAb 278 (antibody, V domains shown)
VH: QVQLVQSGAEVKKPGASVKVSCKASGYIFIRYGISWVRQAPGQGLEWMGWISANNGYTNYAQKLQGRVTMTTDTSTSTAYMELRSLRSDDTAVYYCARDGGILTGYLDYFDHWGQGTLVTVSS
VL: DIQMTQSPSSLSASVGDRLTITCRASQSIASYLNWYQQKPGKAPKLLIYAASSLQSGVPSRFSGSGSGTDFTLTISSLQPEDFATYHCQQSYSTLGITFGPGTKVDIK
notes: copies: 2 + 2

This assay concerns the target T1, His-tagged SARS-CoV-2 RBD T478K (SARS-CoV-2, Wuhan-Hu-1 RBD with T478K, T478K).
T1 construct: not shown: His6, N-terminal, kept
The experiment in a line: BLI. To be noted: both partners purified.
For orientation: Kd means a measure of binding affinity in units of concentration. Low values mean a tighter complex, high ones a looser complex. In the case of B1, the Kd was determined as 0.2 nM.

In turn, B2 gave a dissociation constant Kd of 2.4 nM.

On to B3, for which the Kd was found to be 0.35 nM.

The molecule B4 had a Kd of 0.69 nM.

In turn, B5 returned a Kd of 1.5 nM.

The record behind these values is publication PMC8218332 (Cell, 2021).
